Several values for one entry are separate records, joined by “and”; a condition that tells them apart may be missing. Equal entries are not always repeated.
B1: CarD–NT (in vitro purified CarD) (natural protein, M. smegmatis, UniProt A0R561 1-162, looked up)
chain: MIFKVGDTVVYPHHGAALIEAIETRTIKGEQKEYLVLKVAQGDLTVRVPADNAEYVGVRDVVGQEGLDKVFQVLRAPHTEEPTNWSRRYKANLEKLASGDVNKVAEVVRDLWRRDQERGLSAGEKRMLAKARQILVGELALAENTDDAKAETILDEVLAAAS
notes: CarD, transcription factor of M. smegmatis; dimer when alone (native gel); Uniformly 13C,15N-labelled for some NMR samples; also called [^13C,^15N]-CarD; source: E. coli (strain LK3209), purified (Ni-NTA, TEV protease cleavage; for NMR also Superdex 75)
B2: CrsL–His (in vitro purified CrsL) (natural protein, M. smegmatis, UniProt A0R4M8 1-54, looked up)
chain: MPAKTDPADLGDVEPLADDTASQARRVVATYATDADECRMFLSMLGIGPSKTEV
notes: CrsL, small protein (predicted MW 5.7 kDa) encoded by MSMEG_5890 of M. smegmatis; 15N- or 13C,15N-labelled for NMR; also called [^15N]-CrsL; [^13C,^15N]-CrsL; source: E. coli (strain LK3499), purified (Ni-NTA, Superdex 75; for NMR Superdex 30)

Key:
[1] = target: the molecule itself; assay: native gel or EMSA; purified CrsL, CarD and DnaK mixed in 1× STB buffer (50 mM Tris–HCl pH 8.0, 5 mM Mg acetate, 100 μM DTT, 50 mM KCl, 50 μg/ml BSA), 37°C 15 min; 8% native gel at 4°C; Coomassie stain, bands confirmed by mass spectrometry
[2] = target: B1; assay: ITC; 27.6 μM CarD in the cell titrated by 315 μM CrsL; 27°C; 50 mM Tris–HCl, 100 mM NaCl, 0.5 mM DTT, pH 7.5; one-site binding model; triplicate; settings: both partners purified

| Kd [2] | dH [2] | stoichiometry N [2] | Binder | stoichiometry N [1] |
| --- | --- | --- | --- | --- |
| – | – | – | B1 | 2 |
| 4.3 nM and 4.5 nM and 3.3 nM | -87.9 kJ/mol | 1 | B2 | – |
